Measured values: paper PMC5552905, “Mechanisms of peptide sex pheromone regulation of conjugation in Enterococcus faecalis” (MicrobiologyOpen, 2017)

T1: PrgX (Enterococcus faecalis (plasmid pCF10), UniProt Q04114 1-317)
T1 sequence: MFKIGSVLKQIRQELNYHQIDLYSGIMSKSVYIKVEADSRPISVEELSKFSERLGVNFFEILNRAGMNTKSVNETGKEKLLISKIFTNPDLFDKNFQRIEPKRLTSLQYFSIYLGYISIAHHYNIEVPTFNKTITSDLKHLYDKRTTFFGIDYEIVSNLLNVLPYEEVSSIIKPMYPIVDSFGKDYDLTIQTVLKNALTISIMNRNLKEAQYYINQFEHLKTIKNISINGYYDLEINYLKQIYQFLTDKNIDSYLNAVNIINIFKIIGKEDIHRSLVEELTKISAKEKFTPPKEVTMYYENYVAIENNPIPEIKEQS

B1: cCF10 (C, clumping-inducing peptide, sex pheromone) (peptide)
peptide: LVTLVFV
notes: source: synthetic peptide, bought: New England Peptides
B2: iCF10 (I, inhibitor peptide) (peptide)
peptide: AITLIFI
notes: as for B1
B3: His-tagged PrgX (natural protein, Enterococcus faecalis (plasmid pCF10), UniProt Q04114 1-317, looked up)
chain: T1 sequence
notes: PrgX, master transcription regulator and sex pheromone receptor encoded by the Enterococcus faecalis plasmid pCF10; also called HisPrgX; Apo-PrgX
B4: HisPrgX-C complex (complex)
chain 1: T1 sequence
chain 2: LVTLVFV
notes: copies: 4 +
B5: HisPrgX-I complex (complex)
chain 1: T1 sequence
chain 2: AITLIFI
notes: copies: 4 +
B6: XBS1 DNA (dsDNA)
DNA 1: TGTTAATATTTTAATTTTAGGTATTGAATACGACACTCGAAGATGTGTTTATTAAGCTATATCCCTTTTTTTTAAAAAAAAATA
DNA 2: TATTTTTTTTTAAAAAAAAGGGATATAGCTTAATAAACACATCTTCGAGTGTCGTATTCAATACCTAAAATTAAAATATTAACA
B7: PrgX‐C: PrgX/cCF10 complex (tetramer), purified by nickel affinity and size exclusion chromatography (protein)
chain 1: T1 sequence
chain 2: LVTLVFV
modifications: left off: His tag, end not stated, kept
B8: PrgX‐I: PrgX/iCF10 complex (tetramer), purified by nickel affinity and size exclusion chromatography (protein)
chain 1: T1 sequence
chain 2: AITLIFI
modifications: left off: His tag, end not stated, kept

Assays:
His-tagged PrgX = molecular target: B3; assay: SPR; details: both partners purified
[1] = molecular target: the molecule itself; assay: SEC; Superdex 200 Hiload 16/600, 20 mmol/L Tris-HCl pH 8.0, 300 mmol/L NaCl; affinity purified HisPrgX, HisPrgX-C or HisPrgX-I loaded; calibrated with gel-filtration standards; no DNA
PrgX = molecular target: T1, PrgX; assay: EMSA; apo (DMF); single shifted band; EMSA: 20 mM Tris-HCl pH 7.9, 0.1 M NaCl, 0.1 mM EDTA, 10% glycerol, 10 mM MgCl2, 1 ug poly-[d(A-T)], 0.1 ug poly-L-lysine, 20 ul, room temperature 15 min, 8 fmol DIG-labelled probe; details: protein: recombinant; tags: GST removed with PreScission (pGEX6p-1); chain copies: 2; label: 3' DIG-11-ddUTP; blunt
[2] = system: LT DNA (XBS1 and XBS2 operator sites), P Q promoter region; type: binding, Enterococcus faecalis (plasmid pCF10); details: for supershift of LT DNA by purified tetramers: SEC-purified PrgX-C or PrgX-I tetramers, LT probe containing both XBSs
Excerpt: The LT DNA template containing XBS1 and XBS2 sites (LT DNA, pCF10 sequence from nt 8029 to nt8185 (Hirt et al., 2005)) was PCR amplified from pCF10 using primers as described in. The XBS1 DNA template only has XBS1 site (pCF10 sequence 8029–8131nt) was made by annealing oligos ‐129/‐47‐F (5′[…] 3′) and −129/−47R (5′[…] 3′) to obtain double‐stranded DNA. The XBS2 DNA template only has the XBS2 site (pCF10 sequence from 8109 to 8290; −66 to +114 relative to the prgQ transcription initiation site), and was PCR amplified from pCF10 using primers as described in Caserta et al., 2012. In DNA templates with 5‐bp or 10‐bp insertions, sequence GTACC or […] was inserted between XBS1 and XBS2 sites and at a position of 6‐bp after the XBS1 site. DNA probes were labeled at the 3′‐ends with DIG‐11‐ddUTP using the DIG Gel Shift kit (Roche) by following the manufacturer's instructions. EMSA assays were performed in 20 μl reactions: DIG‐labeled DNA, purified proteins, 1 μg of poly‐[d(A‐T)], 0.1 μg of poly‐L‐lysine, 1 × reaction buffer (20 mmol L^−1 Tris‐HCl, pH 7.9, 0.1 mol L^−1 NaCl, 0.1 mmol L^−1 EDTA, 10% glycerol, 0.01 mol L^−1 MgCl2). The reactions were incubated at room temperature for 15 min and loaded onto 5% polyacrylamide gels in 1 × TBE buffer (Tris, Borate, EDTA, pH 7.9). After electrophoresis at 100 V for 1.5 h, the DNA–protein complexes and DNA probes were electrotransferred onto a nylon membrane (Roche) at 6 V for 2 h using the GENIE electrophoretic blotter (Idea Scientific). DIG‐labeled DNA fragments were visualized by an enzyme immunoassay (DIG Gel Shift Kit, Roche) following the manufacturer's instructions. […] For the experiments reported here the powdered form of the peptides were initially solubilized in pure DMF at 0.5 mg/ml, and then diluted 10‐fold in KPBS for use as a working stock solution, which was diluted into the EMSA reactions to a final peptide concentration of 40 nmol L^−1.
EMSA assays were performed using 8 fmol of digoxigenin‐labeled LT DNA probes with increasing amounts of PrgX protein. PrgX was preincubated for 5‐min at room temperature with 40 nmol L^−1 of C (a) or I (b) before adding LT DNA. PrgX concentrations: lanes 2 and 6: 38 nmol L^−1; lanes 3 and 7: 76 nmol L^−1; lanes 4 and 8: 190 nmol L^−1; lanes 5 and 9: 568 nmol L^−1. (c) Cartoon showing the predicted products formed by binding PrgX to LT DNA.

## B1
His-tagged PrgX
  Kd: 0.686 pM
  koff: 5.5e-05 s⁻¹

## B2
His-tagged PrgX
  Kd: 0.152 pM
  koff: 2.09e-05 s⁻¹

## B3
[1]
  stoichiometry N: 2

## B4
[1]
  stoichiometry N: 4

## B5
[1]
  stoichiometry N: 4

## B6
PrgX
  binding result: binds

## B7
[2]
  relative protein concentration for supershift / singly shifted probe: slightly more of the singly shifted probe is detected relative to PrgX/I complexes at equivalent protein concentrations
  supershift of LT DNA by purified tetramers: nearly complete supershift to band II at extremely low PrgX concentrations

## B8
[2]
  relative protein concentration for supershift / singly shifted probe: complete supershifting at slightly lower protein concentrations than PrgX/C
  supershift of LT DNA by purified tetramers: nearly complete supershift to band II at extremely low PrgX concentrations
